Residue numbers refer to the chain shown, from its start. Names and notes keep the numbering of the source.
How the values were obtained:
HeLa cells = assay: Cellular internalization by flow cytometry; type: cell-based; conditions: for increase in cellular uptake into HeLa cells: 5 μM, 4 h, relative to unmodified lysozyme; for effect of fructose on enhancement of cellular uptake into HeLa cells: fructose 250 mM
Description: Cell lines were obtained from American Type Culture Collection (Manassas, Va.) and were maintained according to the recommended guidelines. Cells were grown in a cell culture incubator at 37° C. and 5% CO2 in flat-bottomed culture flasks. Cell media was supplemented with 10% (v/v) GIBCO fetal bovine serum (FBS), 100 units/mL penicillin, and 100 μg/mL streptomycin in the appropriate cellular media for HeLa cells: DMEM, high glucose (Invitrogen, Carlsbad, Calif.). Cells were counted by hemocytometry for dispensing into 12-well plates (Corning Costar, Lowell, Mass.).
BODIPY-FL was excited with a 488 nm solid-state laser and the emission was collected with a 530/30 bandpass filter. At least 10,000 cellular events were acquired for each sample. Data were analyzed using FlowJo 8.1.3 (Treestar, Ashland, Oreg.).
The day prior to the experiment, 1×10^5HeLa cells/well were plated in 12 well plates. The day of the experiment, the appropriate amount of fructose was dissolved into the cellular medium to obtain a final 250 mM fructose concentration, then it was sterile filtered with a 0.45 μm Whatman (Piscataway, N.J.) syringe filter. Non-fructose containing medium was likewise sterile filtered to maintain consistency between the experimental groups. Stock solutions of fluorescently labeled proteins were diluted into the cell culture to a final concentration of 5 μM. proteins were incubated with cells for four hours, then the cells were rinsed twice with PBS, removed from the cell culture plate with trypsin, placed in flow cytometry tubes containing 80 μL of FBS (to ensure cell viability), and incubated on ice until analyzed by flow cytometry. Final fluorescence values were divided by the percent fluorophore labeling of the protein to determine the corrected value of fluorescence. Experiments were run in triplicate (except for PBA-boronated lysozyme, which was in duplicate) and the data is reported as the mean±standard deviation normalized to the wild type protein uptake.
Flow cytometry experiments were conducted as described in Example 11 with Fluorescein-conjugated NeutrAvidin and Boronated Fluorescein-conjugated NeutrAvidin (boronated by complexation to the PBA-boronated Biotin-peptide conjugate) in HeLa cells.

Lec-2 cells = assay: Cellular internalization by flow cytometry; type: cell-based, Chinese hamster
Description: (§1) Cell lines were obtained from American Type Culture Collection (Manassas, Va.) and were maintained according to the recommended procedures. Cells were grown in a cell culture incubator at 37° C. under CO2 (5% v/v) in flat-bottomed culture flasks. Cell medium was supplemented with GIBCO fetal bovine serum (FBS) (10% v/v), penicillin (100 units/mL), and streptomycin (100 μg/mL) in the appropriate cellular medium as follows: Pro-5, MEM α+ribonucleosides+deoxyribonucleosides; Lec-2, MEM α-ribonucleosides-deoxyribonucleosides; and K562, RPMI 1640. Cells were counted by hemocytometry for dispensing into 12-well plates (Corning Costar, Lowell, Mass.) or 8-well chambered coverglass slides (Nuc Lab-Tek II, Thermo Scientific).
(§2) BODIPY-FL was excited with a 488 nm solid-state laser and the emission was collected with a 530/30 bandpass filter. To collect the most reproducible data, for every flow cytometry experiment, the sensitivity (voltage) of the photomultiplier tube was set for all data collections using mid-range Rainbow beads from Spherotech (Lake Forest, Ill.) to a predetermined fluorescence target value. At least 10,000 cellular events were acquired for each sample. Data were analyzed using FlowJo 8.1.3 (Treestar, Ashland, Oreg.).
(§3) The day prior to an experiment, Pro-5 and Lec-2 cells were plated in 12-well plates at 1×10^5 cells/well. The day of the experiment, the appropriate amount of fructose was dissolved into the cellular medium to obtain a final fructose concentration of 250 mM, and the medium was passed through a 0.45-μm syringe filter from Whatman (Piscataway, N.J.). Non-fructose-containing medium was filtered likewise. Stock solutions of fluorescently labeled ribonucleases were diluted into the cell culture to a final concentration of 5 μM. Ribonucleases were incubated with cells for 4 h. Cells were then rinsed with PBS (2×400 μL), removed from the cell culture plate with trypsin (400 μL, 0.05% (1×) with EDTA; Invitrogen, Carlsbad, Calif.), placed in flow cytometry tubes containing 80 μL of FBS, and incubated on ice until analyzed by flow cytometry. Final fluorescence values were divided by the percent fluorophore labeling of the ribonuclease to determine the corrected value of fluorescence. Experiments were run twice in triplicate unless otherwise indicated. Data is illustrated in FIG. 4A and FIG. 4C.

Pro-5 cells = assay: Cellular internalization by flow cytometry; type: cell-based, Chinese hamster
Description: as §1, §2, §3

[1] = Hydrolysis of labeled protein by cell lysate; type: in vitro ADME, human; conditions: K-562 cell lysate, ambient temperature, 12 h, MALDI-TOF
Description: K-562 cells were grown to confluence in a T75 flask before their collection and lysis with M-PER from Thermo Fisher Scientific. The presence of esterase activity in the lysate was verified by a colorimetric assay using p-nitrophenyl acetate (data not shown). A solution of esterified FLAG-RNase A (10 μg) was added to 200 μL of K-562 cell lysate, and the reaction mixture was nutated at ambient temperature for 12 h. FLAG-RNase A was purified with anti-FLAG® M2 Magnetic Beads from Sigma-Aldrich.

K-562 cells = assay: Cell-proliferation assay, CyQUANT NF; type: cell-based, human; conditions: 48 h, serum-free RPMI 1640, read-out: IC50, inhibition of K-562 cell proliferation
Description: The effect of unmodified G88R RNase A and TMLB-G88R RNase A on the proliferation of K-562 cells was assayed using a CyQUANT® NF Cell Proliferation Assay Kit (Invitrogen). Briefly, 5×10^4 cells/mL were added to each well of a 96-well plate in 100 μL of serum-free RPMI 1640 medium. Cells were incubated with G88R RNase A or TMLB-G88R RNase A for 48 h, with PBS and H2O2 serving as negative and positive controls, respectively. Cells were then washed and incubated in CyQUANT® reagent for 30 min and fluorescence intensity was measured with excitation at ˜485 nm and emission detection at ˜530 nm. Data are the average of two measurements for each concentration, and the entire experiment was repeated in triplicate. The results are shown as the percentage of dye incorporated relative to control cells treated with PBS. Values for IC50 were calculated by fitting the curves by nonlinear regression to the equation: y=100%/(1+10^(log(IC50)-log [ribonuclease])h), where y is the total DNA synthesis following the CyQUANT dye pulse and h is the slope of the curve (FIG. 28).

[2] = Hydrolysis of labeled protein by cell lysate; type: in vitro ADME, Chinese hamster; conditions: CHO K1 cell lysate, ambient temperature, 12 h, MALDI-TOF
Description: CHO K1 cells were grown to confluence in a 10-cm^2 dish before their collection and lysis with M-PER (Thermo Fisher Scientific). The presence of esterase activity in the lysate was verified by a colorimetric assay using p-nitrophenyl acetate (data not shown). A solution of TMLB-GFP (10 μg) was added to 200 μL of CHO K1 cell lysate, and the reaction mixture was nutated at ambient temperature for 12 h. The GFP was subsequently purified with HisPur™ Ni-NTA Magnetic Beads (Thermo Fisher Scientific).

[3] = 5 μM, 4 h, relative to unmodified RNase A

Molecule: benzoboroxole-boronated lysozyme: chicken egg white lysozyme conjugated with 5-amino-2-hydroxymethylphenylboronic acid, on average 2.3±1.1 per lysozyme
- increase in cellular uptake into HeLa cells (HeLa cells): about 4 fold
- effect of fructose on enhancement of cellular uptake into HeLa cells (HeLa cells): decreased

Molecule: Boronated Fluorescein-conjugated NeutrAvidin: Fluorescein-conjugated NeutrAvidin boronated by complexation to the PBA-boronated Biotin-peptide conjugate
- increase in internalization in HeLa cells (HeLa cells; relative to unmodified Fluorescein-conjugated NeutrAvidin): about 2 fold

Molecule: PBA-boronated lysozyme: chicken egg white lysozyme conjugated with 3-aminophenyboronic acid, on average 2.6±1.7 PBA
- increase in cellular uptake into HeLa cells (HeLa cells): about 20 fold
- effect of fructose on enhancement of cellular uptake into HeLa cells (HeLa cells): decreased

B1: PBA-boronated RNase A: RNase A conjugated with 3-aminophenylboronic acid, on average 5.3±2.3 PBA per protein (conjugate, UniProt P61823 27-150, looked up)
Ribonuclease pancreatic: KETAAAKFERQHMDSSTSAASSSNYCNQMMKSRNLTKDRCKPVNTFVHESLADVQAVCSQKNVACKNGQTNCYQSYSTMSITDCRETGSSKYPNCAYKTTQANKHIIVACEGNPYVPVHFDASV
modifications: 3-aminophenylboronic acid conjugates
notes: RNase A conjugated with 3-aminophenylboronic acid, on average 5.3±2.3 PBA per protein
- increase in cellular uptake (Lec-2 cells; [3]): 2.5-3 fold
- effect of fructose on enhancement of cellular uptake (Lec-2 cells; fructose 0.25 M): eliminated
- increase in cellular uptake (Pro-5 cells; [3]): 2.5-3 fold
- effect of fructose on enhancement of cellular uptake (Pro-5 cells; fructose 0.25 M): eliminated

B2: esterified FLAG-RNase A: FLAG-RNase A labeled with TMLB-NHS ester, 1.6±0.7 labels per protein (conjugate, UniProt P61823 27-150, looked up)
Ribonuclease pancreatic: B1 Ribonuclease pancreatic
modifications: FLAG tag; TMLB ester labels
notes: FLAG-RNase A labeled with TMLB-NHS ester, 1.6±0.7 labels per protein
- reversibility of labeling: removal of labels by cell lysate [1]: regeneration of unlabeled FLAG-RNase A was confirmed

B3: TMLB-labeled G88R RNase A: G88R RNase A labeled with TMLB-NHS ester, 2±1 labels per protein (conjugate, UniProt P61823 27-150, looked up, variant G88R)
Ribonuclease pancreatic: B1 Ribonuclease pancreatic with G88R
modifications: TMLB ester labels
notes: G88R RNase A labeled with TMLB-NHS ester, 2±1 labels per protein
- IC50 (K-562 cells): 3.5 ± 0.8 µM
- reversibility of labeling: removal of labels by cell lysate [2]: removed all of the labels

B4: G88R RNase A: cytotoxic G88R variant of ribonuclease A (protein, UniProt P61823 27-150, looked up, variant G88R)
Ribonuclease pancreatic: B1 Ribonuclease pancreatic with G88R
- IC50 (K-562 cells): 6.4 ± 0.1 µM

Reference: US9732101B2, “Bioreversible boronates for delivery of molecules into cells” (WISCONSIN ALUMNI RESEARCH FOUNDATION, priority 2012, dated 2017)
